Molecular target: the molecule itself
Experiment: native gel or EMSA; semi-native PAGE (8%), Tris-Gly buffer system without detergent or denaturing agents, 100 V, 18 °C, Coomassie; lyophilized and reconstituted SfC12DO

B1: catechol 1,2-dioxygenase from Stutzerimonas frequens GOM2 (enzyme, UniProt A0ABX6XR78 1-312, looked up)
chain: MTVKISHTNDVQQFFKEASGFNNDAGSSRLKTVINRVLADTARIIEDLEITQDEFWKAVDYINRLGGRHEAGLLVAGLGLEHYLDLLQDAKDEQEGLVGGTPRTIEGPLYVAGAPIAEGEVRMDDDSEEGVATTMFLQGRVTGPDGKPLAGATVDLWHANTKGNYSYFDKSQSEYNLRRRIVTDENGYYRARSIVPSGYGCSPDGPTQEVLDMLGRHGQRPAHIHFFISAPGHRHLTTQINLAGDKYLWDDFAYATRDGLVGDIRFIDDAEAARARGVQGRFAEVDFDFQLQKAPAPQAEQRSKRPRALQQA
notes: catechol 1,2-dioxygenase encoded by the CatA gene of Stutzerimonas frequens GOM2 (Pseudomonas stutzeri GOM2); regions are labelled up to residue 312; Non-heme Fe3+ enzyme; Number of copies depends on the sample: dimer when non-lyophilized; dimer, tetramer, (hexamer), octamer and >20-mer after lyophilization and reconstitution; also called SfC12DO; PsC12DO; source: used non-lyophilized, or …
stoichiometry N: 6
